# Measured values as given in the supplement of paper PMC12042874.
# ± gives the uncertainty stated by the source.
# Test: amyloid nucleation score (Sup35N fusion, yeast selection) (log enrichment); library NNK1; higher = more nucleation; inactive = no reads after selection
# Method in brief: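 Sup35N fusions to peptides of 20 random codons were expressed in psi-negative yeast, induced 24 hours with 100 μM copper sulfate, and grown 7 days at 30°C on medium lacking adenine and uracil. Input and output plasmid inserts were sequenced by Illumina. The nucleation score is the DiMSum log enrichment of output over input reads, centred on the mode score of non-aggregating sequences. Sequences with under 100 input reads were excluded.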
row,Substance,amyloid nucleation score
1,WSSYTFR,0.839 ± 0.63
2,WSTGDVLVLVKLYYAFMCVI,-0.819 ± 0.27
3,WSTLVKRSDFCVHWVLFGSG,-0.179 ± 0.46
4,WSTQSLCFGPT,0.012 ± 0.63
5,WSVISIEASLCRQVPLYANT,0.26 ± 0.65
6,WSYLQY,-0.364 ± 0.79
7,WTAWADNSACSLCGQN,0.859 ± 0.73
8,WTISSKGFFCWINCGLLQKR,5.704 ± 0.05
9,WTLCMPKCGWRQSFSLRSRR,-0.294 ± 0.47
10,WTYWGSCGGLWSKIFIYFLL,3.66 ± 0.078
11,WVAINPCV,0.464 ± 0.88
12,WVARVMCRKNSYSMLIMWIC,-0.102 ± 0.22
13,WVCRSISPLVRTSLPRYWRN,inactive
14,WVCSNNMHMSIANVGLDCNL,0.178 ± 0.33
15,WVKCLPGGLQAFWYS,-0.369 ± 1
16,WVLVIVLLRRWHHRDGAGQS,0.57 ± 0.47
17,WVLVSVH,0.211 ± 0.24
18,WVQNHKRQAPRDVLLSSYPD,inactive
19,WVSNCIFDAGLWRSYYRMGI,0.74 ± 0.34
20,WVTQVDWSGRR,-0.348 ± 0.77
21,WVWSLWYSRDGVKVFFDRQS,-0.39 ± 0.34
22,WWGRGVLVWYGCRAKVWTS,0.012 ± 1.6
23,WWSRTLSLLE,-0.035 ± 0.32
24,WWVYRARFNCCHLYKVYLHC,0.221 ± 0.88
25,WWYQCHCSYYHAIGITSVQE,1.39 ± 0.63

row,Substance,amyloid nucleation score
1,WYCPATH,0.836 ± 0.97
2,WYPMYQNTYRAEERVT,0.42 ± 0.64
3,WYPYTVSIPLIYVVSCIDEY,5.91 ± 0.07
4,WYSTFGAMKKLGTYPCSGVN,-0.46 ± 1
5,YAALVHTHLKDYEISIYVIN,0.988 ± 0.43
6,YADRFRASASPNMCDRCSLW,4.01 ± 0.098
7,YALCKLSA,0.851 ± 0.79
8,YANCL,0.517 ± 0.44
9,YAPLLLSWAYFGV,1.31 ± 0.25
10,YCANQRNSVPMGRMEPHSSS,-0.2 ± 0.49
11,YCCGDTPTFCSLKFIMS,7.059 ± 0.047
12,YCCYLMCYSRRILDGP,0.174 ± 0.43
13,YCEYILGFCFEMYAFGNRSP,0.573 ± 0.62
14,YCNLIRFKFCVNSCCMSSSL,5.64 ± 0.078
15,YCPSC,0.859 ± 0.42
16,YCRFWVDFFVFESILDSPPN,0.093 ± 0.32
17,YCWRVSHLGNGRYRLSLSFG,inactive
18,YDEGWANT,0.048 ± 1.5
19,YDMIWSSMLGFIERQAYMLP,-0.502 ± 0.32
20,YDPPTWIHNAMGG,0.342 ± 0.41
21,YDPRIGLVSVGNVRNNSV,-1.48 ± 1.4
22,YDRMRTSIVRACERNLSDMH,0.786 ± 0.35
23,YDRVYLNQFVRTESVHFFCL,6.341 ± 0.056
24,YDSRCMAVSFSGSLFSHLLE,-0.317 ± 0.45
25,YDTFSPRSWS,2.02 ± 0.62

row,Substance,amyloid nucleation score
1,YDTLMMNNLEMSTFVRMGLW,0.503 ± 0.51
2,YECKVYKSK,0.466 ± 0.47
3,YEGGM,-0.334 ± 0.73
4,YELAMECYVSWVLLYVA,0.362 ± 0.32
5,YEPEGIQSIWRCSAVRHAKA,-0.286 ± 1.9
6,YFAEDSCERFAPDWVRLSTR,-0.425 ± 1.3
7,YFASCRTM,-0.193 ± 0.27
8,YFCCALSNLLFRKSKHDRVR,6.872 ± 0.068
9,YFDWTRVGYNYGSILLPVEA,0.135 ± 0.51
10,YFFGLILY,-0.332 ± 0.56
11,YFFRKLSGSWASSFLVAPMV,0.444 ± 0.59
12,YFKNTGEVRSIRLSGHHGWG,0.048 ± 0.86
13,YFNVSWID,1.02 ± 0.38
14,YFSGLKDFILISNQNGSS,2.66 ± 0.2
15,YFSVYSRHRSIWTCGIVYSK,0.078 ± 0.49
16,YGCDGDVFRLIVWDVIAPSE,0.044 ± 0.34
17,YGCSVYTVCMF,8.243 ± 0.071
18,YGETGVINWRV,-0.217 ± 0.44
19,YGFKSRDKPFNL,0.008 ± 0.44
20,YGINMWRYLGNQEEATIVFL,0.244 ± 0.3
21,YGQMVIFGPVMLMAVLTW,3.33 ± 0.093
22,YGTNKISVALWS,-0.054 ± 0.79
23,YGYLTITPVQVYIQRTSTWT,4.16 ± 0.12
24,YGYMGGCHFPLYLMRIDSRD,0.564 ± 0.75
25,YGYRSRSLSFCLD,inactive

row,Substance,amyloid nucleation score
1,YHFTSFSNVHHLAHRVGNSF,-0.333 ± 1.4
2,YHKTYIRYWAIVFDMMVRFG,0.372 ± 1.4
3,YHVRLV,0.147 ± 0.34
4,YIASMVCDIRKPHPCLVYVL,0.149 ± 0.42
5,YICEFMIRTMKQPWPSKGEG,0.542 ± 0.32
6,YIFWLYWRQSSSNCLGDVKW,-0.46 ± 0.46
7,YILWHEIFQDCLTRDIIRLM,0.248 ± 0.54
8,YIRIMLGMMPNLRERSRTRV,inactive
9,YIVGPIGVFSY,2.25 ± 0.55
10,YKEFVLYILYRLGLMIRKA,inactive
11,YKESPYNYTWGTVLVGCMVI,-0.702 ± 1.1
12,YKFCVILSNGRQCVMALVRP,0.286 ± 1.2
13,YKFYVTTLGFYDWCPFPVER,0.831 ± 0.42
14,YKNFKFSDDTRMFVNNVSVY,1.25 ± 0.56
15,YKNIPFTYGSFVLASYMSRK,0.368 ± 0.63
16,YKSIWTRLGSGRSRVGLSRL,-0.38 ± 1
17,YLCGHLMNTLYAILNVRRAL,0.888 ± 0.9
18,YLDGVECTN,-0.366 ± 0.63
19,YLDGVIWFLK,-0.591 ± 0.31
20,YLFKSISCNSGRTRNQPKGQ,-0.195 ± 1.4
21,YLILYPRASFKYAIILWSCF,-0.749 ± 0.42
22,YLIVVLCRRCLMGSGYNRIG,-0.368 ± 0.97
23,YLLRVCAAMMFSKLCNG,6.028 ± 0.049
24,YLMLCTEIEPKRAGGGMSER,inactive
25,YLNERE,-1.16 ± 1

row,Substance,amyloid nucleation score
1,YLQFVRQRVCWLRLRPMMKA,-0.183 ± 0.56
2,YLSYDT,-0.411 ± 0.36
3,YLTGVYNWGMCKTCFPRDWG,2.65 ± 0.096
4,YMGPFVPFSRTTAYNVSTFK,0.42 ± 0.79
5,YMLRYVAWCLGPAL,0.459 ± 0.37
6,YMQGDYM,inactive
7,YMRSLFCISTQLSRAILVLP,0.478 ± 1
8,YMTQIMHKARRFNAWPAVMM,0.087 ± 0.3
9,YMYQIG,-0.691 ± 1.7
10,YNCLYDRPFRMMSQCLNIGM,-1.59 ± 1.2
11,YNELKFRGYYNRCLECGFVR,0.495 ± 0.91
12,YNKVDM,-0.316 ± 0.53
13,YNMVFWTKFSLSWLLCLHGK,5.86 ± 0.088
14,YNNSLWPIRLVRSKQCLSWT,0.215 ± 0.54
15,YNSEGDRLESNESWDWMARR,0.511 ± 0.57
16,YNTCECFSFLTCKWLNKMDG,2.79 ± 0.16
17,YNVVSSKNNTVRFVLFP,4.31 ± 0.12
18,YNYDPRFVY,-0.246 ± 0.28
19,YPGEGEPKKYLPYNRLCWRS,1.08 ± 0.69
20,YPGQARNRVLCCGWKFFIDQ,3.39 ± 0.15
21,YPGRWSSYRLEGSTKNARNG,inactive
22,YPLTSHYLLTR,0.038 ± 0.64
23,YPNHGLLRQ,0.166 ± 0.43
24,YPSDLLDIWDDWICWCWELN,0.225 ± 0.53
25,YQETPVNPEPVV,-0.01 ± 0.38

row,Substance,amyloid nucleation score
1,YQKDWFDMHEYYRPM,1.42 ± 0.64
2,YQTWRQWLLFACRVSECYDM,-0.508 ± 1.1
3,YQYNATFFPSITRTNLETKG,0.337 ± 0.49
4,YRDDYACFLRPYPARCG,-0.141 ± 0.92
5,YRFKFGVKWLAPNFLPAFGY,inactive
6,YRKFENGVSVIRFEVQCTLV,4.88 ± 0.072
7,YRLRGGP,-0.25 ± 1.2
8,YRRNIIL,-0.368 ± 0.4
9,YRTNRKEHSYVLLYARRPSQ,0.56 ± 0.72
10,YSFSISVYLLGLSCCCWMGE,6.08 ± 0.064
11,YSGVLFSTAVEYGGRGLVHE,inactive
12,YSIVFGWLRYRLDWMCLISL,0.055 ± 0.26
13,YSLLVHIFMLLWSYDCLTVT,-1.54 ± 2.7
14,YSLSPTKLGFSERLDSNEVV,0.225 ± 0.62
15,YSQYVVTSFTSLREVS,-0.332 ± 0.25
16,YSRGCTFYAKGELRDNGSYY,-0.168 ± 0.48
17,YSSRIVRVSVRRVIHQSLRS,1.41 ± 0.52
18,YSSVDDGGDQHRGLSKAGHN,-0.525 ± 0.64
19,YSVSWQLFGIDVCTFVTVRS,0.367 ± 0.52
20,YSWTVAKIFTYFSVQLSIFR,-0.396 ± 0.33
21,YSYGCCSMLNVVS,1.93 ± 0.2
22,YTFQIILNSVPWYFCAMLWE,5.54 ± 0.1
23,YTMFLPFRLR,0.376 ± 0.8
24,YTRVLILNENATAIIWSE,1.87 ± 0.4
25,YTVRLM,0.125 ± 0.61

row,Substance,amyloid nucleation score
1,YTVSNQLLSRLRGVQHNKLK,-1.11 ± 0.92
2,YTVSTRWRGVNIPYVKHAAL,0.499 ± 0.25
3,YTVTCYCGSDTWSKMLAKVF,-1.16 ± 2.4
4,YTWQYAYLCQVMTSFYSGSI,-0.269 ± 0.47
5,YVADGLKDKQRCSACFDASS,4.93 ± 0.063
6,YVEKVSFTAIEWWRGQLQSV,0.565 ± 0.47
7,YVMQSATDVETSNSGIS,0.525 ± 0.84
8,YVPGSRLRPYLIQSFNNSLY,2.81 ± 0.19
9,YVPSRSGYIDFAGRNNRYSI,-0.401 ± 0.73
10,YVQLLMVHNAMYRSAGIFSY,0.572 ± 0.56
11,YVRWMSLAPSVQWH,1.11 ± 0.19
12,YVSDFKADTATLSSDLCQLA,-0.183 ± 0.73
13,YVTVEIMGYVTKVVTITLW,-0.419 ± 0.44
14,YVYRFNFLNFVW,1.93 ± 0.12
15,YWDKNFHYMCVARLFIVRLC,0.091 ± 0.7
16,YWDYNNFRFFLRKLSFISRL,0.822 ± 1
17,YWFDYINPLMRSFAHATAIS,0.74 ± 0.9
18,YWGLQPFMIY,0.272 ± 0.74
19,YWGTS,0.971 ± 0.49
20,YWTALTFSHY,0.486 ± 0.82
21,YYFILYGSVNQHRTSIFRAR,5.08 ± 0.059
22,YYHRSNTLLSIYVSKLLTNN,-0.183 ± 1.2
